Measurements from patent publication US20150238573A1, “NUTRITIONAL FOOD AND FEED, COMPOSITION, PROCESSING AND METHOD OF USE” (Nutrinia Ltd., priority 2004, published 2015).

Experiments:
[1] = Stability in liquid infant formula over time (Elisa kit); format: physicochemical
Text: The InsuMeal™ is intended to be consumed immediately after solubilization in the infant formula. […] Furthermore, in order to evaluate the final product homogeneity, at each time interval, sampling was taken at the upper, middle and lower layers of the sampled RTF bottle, as well as after formula liquid stirring.

[2] = Influence on vitamin C in the preterm RTF formula; format: physicochemical; conditions: 0, 6 and 12 hours from insulin supplementation
[3] = Clinical trials of oral insulin in preterm infants; format: in vivo, human
Text: Clinical trials were done involving supplementation of preterm infant orally-fed with Insulin.

Q: With Insulin as the substance, how does the Insulin concentration ([1]; 0 hour from insulin addition, 100 μU in 60 ml preterm RTF formula) read?
A: 95.43 μU

Q: What about the Insulin concentration ([1]; 3 hour from insulin addition) of the same substance?
A: 105.47 μU

Q: What about the Insulin concentration ([1]; 6 hour from insulin addition) of the same substance?
A: 111.59 μU

Q: And the Insulin concentration ([1]; 9 hour from insulin addition)?
A: 93.34 μU

Q: And the Insulin concentration ([1]; 12 hour from insulin addition)?
A: 99.55 μU

Q: And the Insulin concentration ([1]; 15 hour from insulin addition)?
A: 105.38 μU

Q: And the Insulin concentration ([1]; 18 hour from insulin addition)?
A: 96.74 μU

Q: And the Insulin concentration ([1]; 21 hour from insulin addition)?
A: 93.78 μU

Q: What about the Insulin concentration ([1]; 24 hour from insulin addition) of the same substance?
A: 104.5 μU

Q: What about the “time highly stable after addition to liquid infant formula” value ([1]; liquid infant formula) of the same substance?
A: at least 24 hr

Q: And the “vitamin C concentration in formula after insulin supplementation” value [2]?
A: No significant differences

Q: And the “time to full enteral feeding” value ([3]; 4 Units per Kg. per day oral for 28 days, control 20 days)?
A: ≤ 11 days

Q: And the Lactase activity ([3]; trial group, control 6.5)?
A: 13.3

Q: What about the Gastric residuals ([3]; trial group, control 54) of the same substance?
A: 22
